Holding throughout (type): biochemical, Methanosarcina acetivorans
Substrate in data set [1]: C[C@@H](OP(=O)(O)O)[C@H](NC(=O)CCCCCCS)C(=O)O
Description: reverse heterodisulfide reductase assay. The note with it: co-substrate HSCoM, 21 °C.

Substrate in data set [2]: O=S(=O)(O)CCS
Put plainly: reverse heterodisulfide reductase assay. The note with it: co-substrate HSCoB, 21 °C.

Substrate in data set [3]: C[C@@H](OP(=O)(O)O)[C@H](NC(=O)CCCCCCSSCCS(=O)(=O)O)C(=O)O
Description: forward heterodisulfide reductase assay with reduced methyl viologen. Conditions: reduced methyl viologen as electron donor, 21 °C, HdrA2 + HdrB2C2, no ferredoxin.
Description: forward heterodisulfide reductase assay with reduced methyl viologen on HdrA2B2C2

B1: HdrB2C2 (Methanosarcina acetivorans C2A) (protein)
chain: MAKLSLFRGCIVPNRYPGIEKATKLCLQKLEVDAVDLPGASCCPAPGVFKSFDKATWLALASRNIVLSERMGRDILTVCNGCYGSLADANIELKNDPEMKACTNSCLKEIGMEYKGTAEVRHIIEFLYKELGPEKLKSFITTPLDLKVALHYGCHLIKPSKERNLGETEAPVFFDELVEATGAKSVDYTDKMMCCGAGGGVRSGHAAESLEMLEHKLACIRNAGVDCIVNACPFCHLQFDRGQLAVNEKFGTDYSIPVLHYSQLLGLALGFSPDELGIEQNAIQNIEFLAKIYEISAGLR
notes: with Heterodisulfide reductase subunit C2 (CoB--CoM heterodisulfide reductase iron-sulfur subunit C 2)
As a reminder, the Km is the substrate concentration at which the rate is half of its maximum. In general, Vmax refers to the top rate of the reaction or transport when substrate is in excess. Turning to B1, the Km in data set [1] (no HdrA2) came out at 1200 ± 200 µM. In data set [2] (no HdrA2), the Km worked out at 1400 ± 200 µM and the Vmax is 0.6 µmol/min/mg.

B2: HdrB2 (Methanosarcina acetivorans C2A) (protein)
chain: B1 chain
In the case of B2, the Km in data set [1] (HdrB2 alone) turned out to be 1100 ± 200 µM. Further, in data set [2] (HdrB2 alone), the Km was 1200 ± 300 µM and the Vmax came to 0.5 µmol/min/mg.

B3: HdrA2B2C2 (Methanosarcina acetivorans C2A) (protein)
chain: B1 chain
notes: complex reconstituted by mixing recombinant HdrA2 (C-terminal His6) with copurified HdrB2C2 (His6 on HdrB2); with Heterodisulfide reductase subunit C2 (CoB--CoM heterodisulfide reductase iron-sulfur subunit C 2); H(2)/F420-type heterodisulfide reductase subunit A2 (CoB--CoM heterodisulfide reductase iron-sulfur subunit A 2; HdrA-MvhD fusion)
B3: in data set [3], the Km was 50 ± 10 µM and the Vmax is 2.2 µmol/min/mg.

For the origin of these results see publication PMC5296606, “A Ferredoxin- and F420H2-Dependent, Electron-Bifurcating, Heterodisulfide Reductase with Homologs in the Domains Bacteria and Archaea” (mBio, 2017).
